{"source": "paper PMC10816986", "about": "“The Role of Key Amino Acids of the Human Fe(II)/2OG-Dependent Dioxygenase ALKBH3 in Structural Dynamics and Repair Activity toward Methylated DNA” (International Journal of Molecular Sciences, 2024)", "molecules": {"B1": {"name": "wt ALKBH3: wild-type human Fe(II)/2OG-dependent dioxygenase ALKBH3 with N-terminal His-tag, expressed in E. coli (protein, UniProt Q96Q83 1-286, looked up)", "Alpha-ketoglutarate-dependent …": "MEEKRRRARVQGAWAAPVKSQAIAQPATTAKSHLHQKPGQTWKNKEHHLSDREFVFKEPQQVVRRAPEPRVIDREGVYEISLSPTGVSRVCLYPGFVDVKEADWILEQLCQDVPWKQRTGIREDITYQQPRLTAWYGELPYTYSRITMEPNPHWHPVLRTLKNRIEENTGHTFNSLLCNLYRNEKDSVDWHSDDEPSLGRCPIIASLSFGATRTFEMRKKPPPEENGDYTYVERVKIPLDHGTLLIMEGATQADWQHRVPKEYHSREPRVNLTFRTVYPDPRGAPW", "modifications": "N-terminal His-tag", "notes": "wild-type human Fe(II)/2OG-dependent dioxygenase ALKBH3 with N-terminal His-tag, expressed in E. coli"}, "B2": {"name": "Y143F ALKBH3: ALKBH3 mutant, Tyr143 replaced with Phe (protein, UniProt Q96Q83 1-286, looked up, variant Y143F)", "Alpha-ketoglutarate-dependent …": "MEEKRRRARVQGAWAAPVKSQAIAQPATTAKSHLHQKPGQTWKNKEHHLSDREFVFKEPQQVVRRAPEPRVIDREGVYEISLSPTGVSRVCLYPGFVDVKEADWILEQLCQDVPWKQRTGIREDITYQQPRLTAWYGELPYTFSRITMEPNPHWHPVLRTLKNRIEENTGHTFNSLLCNLYRNEKDSVDWHSDDEPSLGRCPIIASLSFGATRTFEMRKKPPPEENGDYTYVERVKIPLDHGTLLIMEGATQADWQHRVPKEYHSREPRVNLTFRTVYPDPRGAPW"}}, "tested_on": "m3C_FRET substrate (m3C-containing DNA)", "experiment": "Stopped-flow FRET pre-steady-state kinetics of m3C DNA demethylation", "format": "biochemical", "conditions": "for k1 × 10^−6 / k2 / k3 / kr (irreversible step of substrate hydroxylation) / k−1 / k−2 / k−3 / Kd: global fitting of SF data to Scheme 1; for Kd: read-out: Kd^Product (equilibrium dissociation constant of the enzyme–product complex); for Ka = K1 + K1 × K2 + K1 × K2 × K3: overall affinity for damaged DNA, Ki = ki/k−i", "text": "In previous research, we employed a stopped-flow (SF) method to detect conformational changes in the dioxygenases AlkB and ALKBH2, as well as their substrates, throughout the catalytic cycle. The SF technique provides excellent opportunities for studying the conformational dynamics of protein–nucleic acid complexes under pre-steady-state conditions within the millisecond time range. Conformational transitions are typically detected by measuring the fluorescent signal from the tryptophan residues of the enzyme or fluorescent labels incorporated into the DNA substrate sequence. […] It should be noted that another common approach to detecting conformational dynamics based on measurement of the intrinsic Trp fluorescence of ALKBH3 was unsuccessful due to a low signal-to-noise ratio. The time-dependent FRET signal profiles following rapid (1 ms) mixing of equimolar amounts of enzyme and the m3C_FRET substrate in the presence of Fe(II) and 2OG ligands were obtained under near single-turnover conditions (Figure 3). […] In the case of the wt protein, the initial stage of the enzyme–substrate interaction was accompanied by a slight increase in the FRET signal between 20 ms and 2 s. Subsequently, from 10 s to 250 s, a significant quenching of fluorescence occurs, followed by stabilization at a constant level. The kinetic curve obtained for the Y143F mutant was similar to wt ALKBH3, except that the phase of decrease in the signal was shifted towards longer time scales (20–600 s).\nFor wt and Y143F ALKBH3, a series of SF traces were recorded across a range of m3C substrate concentrations from 0.5 to 4.0 µM (Figure 4). […] Additionally, a slight increase in signal, absent in the native protein, is discernible in the initial segment (1–5 ms) of the curves for Y143F ALKBH3, most likely indicative of the primary enzyme–substrate binding.\nTable 1 summarizes the values of the rate constants describing the forward and reverse reactions of the mechanism, as well as the equilibrium dissociation constant of the enzyme–product complex. […] Subsequent isomerization of the enzyme–substrate complex is characterized by two equilibrium steps, which occur at half the rate in wt ALKBH3, yet with greater efficiency than for the Y143F protein. To assess the overall affinity of ALKBH3’s active site for damaged DNA, the equilibrium constant Ka = K1 + K1 × K2 + K1 × K2 × K3, where Ki = ki/k−i, was determined. […] In contrast, the rate of the step of irreversible hydroxylation of the methyl group by the native protein (kr^wt = 0.023 s^−1) is nearly twice as fast as that of the Y143F mutant (kr^Y143F = 0.013 s^−1). Furthermore, the equilibrium dissociation constant of the enzyme–product complex (Kd^Product) is almost an order of magnitude higher for wt ALKBH3. […] The substitution of Tyr143 with Phe leads to a reduction in the rate and efficiency of demethylation of the m3C substrate, likely due to perturbations in the structure of the catalytically competent complex and strong product binding, which complicates the enzyme’s transition to the next turnover.\nFigure 3 Time courses of the FRET signal generated by the FAM/BHQ1 pair under interactions of wt, Y143F, Y143A, L177A, and H191A ALKBH3 with m3C-containing DNA. The fluorescence traces represent changes in the FRET signal after rapid mixing of 1.5 µM m3C_FRET substrate with 1.5 µM protein in the presence of 40 µM Fe(II) and 1 mM 2OG. Each curve was collected in a split mode within four time intervals (up to 0.1, 1, 50, and 500 or 1000 s) in 4–5 replicates.\nFigure 4 Pre-steady-state kinetics of m3C-containing DNA demethylation by wt (A) and Y143F (B) ALKBH3 proteins.", "data": [{"molecule": "B1", "values": [{"measurement": "k1 (formation of the primary enzyme–substrate complex)", "value": "9.4e+07", "unit": "M⁻¹ s⁻¹"}, {"measurement": "k1 × 10^−6", "value": "19 ± 3", "unit": "M^−1 s^−1"}, {"measurement": "k2", "value": "2.9 ± 0.9", "unit": "s⁻¹"}, {"measurement": "k3", "value": "0.57 ± 0.12", "unit": "s⁻¹"}, {"measurement": "kr (irreversible step of substrate hydroxylation)", "value": "0.023 ± 0.003", "unit": "s⁻¹"}, {"measurement": "k−1", "value": "64 ± 5", "unit": "s⁻¹"}, {"measurement": "k−2", "value": "2.8 ± 0.5", "unit": "s⁻¹"}, {"measurement": "k−3", "value": "0.13 ± 0.01", "unit": "s⁻¹"}, {"measurement": "kr (irreversible step of substrate hydroxylation)", "setting": "listed as wt", "value": 0.023, "unit": "s⁻¹"}, {"measurement": "Kd", "value": 720, "unit": "nM"}, {"measurement": "Ka = K1 + K1 × K2 + K1 × K2 × K3", "value": "(1.9 ± 0.2) × 10^6 M^−1"}]}, {"molecule": "B2", "values": [{"measurement": "k1 (formation of the primary enzyme–substrate complex)", "value": "1.9e+07", "unit": "M⁻¹ s⁻¹"}, {"measurement": "k1 × 10^−6", "value": "94 ± 3", "unit": "M^−1 s^−1"}, {"measurement": "k2", "value": "6.1 ± 1.4", "unit": "s⁻¹"}, {"measurement": "k3", "value": "1.4 ± 0.1", "unit": "s⁻¹"}, {"measurement": "kr (irreversible step of substrate hydroxylation)", "value": "0.013 ± 0.001", "unit": "s⁻¹"}, {"measurement": "k−1", "value": "270 ± 26", "unit": "s⁻¹"}, {"measurement": "k−2", "value": "7.7 ± 0.24", "unit": "s⁻¹"}, {"measurement": "k−3", "value": "0.48 ± 0.03", "unit": "s⁻¹"}, {"measurement": "kr (irreversible step of substrate hydroxylation)", "setting": "listed as Y143F", "value": 0.013, "unit": "s⁻¹"}, {"measurement": "Kd", "value": 83, "unit": "nM"}, {"measurement": "Ka = K1 + K1 × K2 + K1 × K2 × K3", "value": "(1.4 ± 0.1) × 10^6 M^−1"}]}]}
